These results are taken from patent US20130224854A1 (NIPPON KAYAKU, published 2013).

In the experiment the target is T1, single-chain type IV collagen alpha1 polypeptide (human) (human, UniProt P02462 173-1669, lower proportion of hydroxylated proline and hydroxylated lysine residues than type IV collagen; carries a sugar chain recognized by ABA lectin (positions not given)).
T1 construct: mature; Secreted by human cancer cells (HLF, UO31, Lu65A); also called single-chain type IV collagen polypeptide; single-chain COL4
T1 sequence (P02462 173-1669): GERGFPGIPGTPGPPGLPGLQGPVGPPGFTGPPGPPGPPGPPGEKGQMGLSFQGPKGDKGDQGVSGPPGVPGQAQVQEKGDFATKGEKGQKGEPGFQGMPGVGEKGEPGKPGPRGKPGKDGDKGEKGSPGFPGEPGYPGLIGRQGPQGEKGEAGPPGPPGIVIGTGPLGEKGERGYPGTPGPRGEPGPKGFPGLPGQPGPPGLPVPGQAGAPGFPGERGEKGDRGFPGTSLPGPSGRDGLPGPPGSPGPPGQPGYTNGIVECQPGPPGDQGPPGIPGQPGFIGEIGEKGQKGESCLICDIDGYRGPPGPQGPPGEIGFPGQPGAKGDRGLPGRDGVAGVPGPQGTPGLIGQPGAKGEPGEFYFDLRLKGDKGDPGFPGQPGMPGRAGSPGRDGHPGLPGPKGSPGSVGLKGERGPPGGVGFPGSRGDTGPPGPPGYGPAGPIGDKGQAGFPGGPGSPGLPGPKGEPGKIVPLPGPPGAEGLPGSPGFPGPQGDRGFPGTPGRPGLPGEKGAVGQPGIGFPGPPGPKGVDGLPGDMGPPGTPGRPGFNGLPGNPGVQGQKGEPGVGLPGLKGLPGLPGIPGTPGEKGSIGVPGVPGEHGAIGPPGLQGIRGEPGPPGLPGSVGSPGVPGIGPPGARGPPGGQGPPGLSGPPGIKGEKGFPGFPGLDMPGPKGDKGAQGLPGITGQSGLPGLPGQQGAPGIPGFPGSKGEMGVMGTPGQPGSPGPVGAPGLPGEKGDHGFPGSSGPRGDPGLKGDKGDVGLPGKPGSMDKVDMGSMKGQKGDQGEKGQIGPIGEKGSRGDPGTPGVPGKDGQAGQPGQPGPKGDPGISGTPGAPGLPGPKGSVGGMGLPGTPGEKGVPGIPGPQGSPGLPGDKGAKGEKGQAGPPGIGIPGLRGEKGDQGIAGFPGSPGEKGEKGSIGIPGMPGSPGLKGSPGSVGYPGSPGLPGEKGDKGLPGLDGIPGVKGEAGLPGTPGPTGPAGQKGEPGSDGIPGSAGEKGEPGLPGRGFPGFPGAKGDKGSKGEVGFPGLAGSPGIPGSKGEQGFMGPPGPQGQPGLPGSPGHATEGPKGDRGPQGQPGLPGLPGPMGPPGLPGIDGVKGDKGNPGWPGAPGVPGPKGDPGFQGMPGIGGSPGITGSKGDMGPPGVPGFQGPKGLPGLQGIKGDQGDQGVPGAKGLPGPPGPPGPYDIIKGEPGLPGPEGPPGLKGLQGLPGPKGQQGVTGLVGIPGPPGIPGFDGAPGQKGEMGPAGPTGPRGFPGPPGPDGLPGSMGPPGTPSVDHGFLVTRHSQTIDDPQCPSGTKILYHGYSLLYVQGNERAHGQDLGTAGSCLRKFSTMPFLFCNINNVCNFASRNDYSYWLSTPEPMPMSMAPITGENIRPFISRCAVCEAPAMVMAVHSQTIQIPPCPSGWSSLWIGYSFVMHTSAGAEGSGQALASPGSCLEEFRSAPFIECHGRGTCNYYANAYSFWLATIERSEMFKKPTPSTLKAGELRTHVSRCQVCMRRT
Description: competition ELISA at equilibrium in solution (method of Djavadi-Ohaniance), free antibody measured on immobilized antigen. The procedure:
The dissociation constant of the purified monoclonal antibody NK46141 was determined by ELISA with reference to the method of Djavadi-Ohaniance L. et al. [Djavadi-Ohaniance L., et al., (1996) In Antibody Engineering (Eds.: McCafferty J., et al.), Chapter 4, pp. 77-97., IRL Press, Oxford.].
In brief, Immunoplate (Nunc; manufactured by Thermo Fisher Scientific Inc.) with the single-chain type IV collagen al polypeptide (antigen) immobilized thereon in advance was prepared. Meanwhile, JK132 and NK46141 having a constant concentration (0.10 μg/ml) were each incubated with varying concentrations of the antigen for a sufficient time until reaching equilibrium. This incubation solution was added to the ELISA wells to determine the amount of free antibodies. Since the antigen-antibody reaction follows the law of mass action, measured values were applied to formula 1 below. X and Y in formula 2 below were determined, and a graph was drawn to determine the dissociation constant from the slope (1/Kd).

B1: monoclonal antibody NK46141 (antibody, V domains shown)
VH: EVQLVESGGGLVKPGGSLKLSCAASGFTFTDYYMYWVRQTPEKRLEWVATISEGGSYTYYPDSVKGRFTISRDNAKNNLYLQMSSLKSEDTAMYYCASPYYGDGGFAYWGQGTLVTVSA
VL: DVLMTQTPLSLPVSLGDQASISCRSSQSIVHSDGNTYLEWYLQKPGQSPRLLIYKVSNRFSGVPDRFSGSGSGTDFTLKISRVEAEDLGVYYCFQGSHVPPTFGGGTKLEIKR
notes: also called anti-single-chain type IV collagen polypeptide antibody; Anti NK-Antigen monoclonal antibody #141
One may read the Kd as the concentration at which binding is half-saturated. A low value points to a tighter complex. B1 gave a Kd of 34 nM.
